Legend:
Assay in all cases: cell-based or functional assay
[1] = biological target: SARS-CoV-2 spike (S) protein, Omicron sublineage BQ.1 (SARS-CoV-2)
[2] = biological target: SARS-CoV-2 spike (S) protein, Omicron sublineage XBB (SARS-CoV-2)
[3] = biological target: SARS-CoV-2 spike (S) protein, Omicron sublineage BA.2.75.2 (SARS-CoV-2)
[4] = biological target: SARS-CoV-2 spike (S) protein, Omicron sublineage BA.4/5 (SARS-CoV-2)
[5] = biological target: SARS-CoV-2 spike (S) protein, Omicron sublineage BQ.1.1 (SARS-CoV-2)

Row | Binder | IC50, pseudovirus neutralization [1] | IC80, pseudovirus neutralization [1] | IC50, pseudovirus neutralization [2] | IC80, pseudovirus neutralization [2] | IC50, pseudovirus neutralization [3] | IC80, pseudovirus neutralization [3] | IC50, pseudovirus neutralization [4] | IC80, pseudovirus neutralization [4] | IC50, pseudovirus neutralization [5] | IC80, pseudovirus neutralization [5]
1 | F769-E12 (antibody, V domains shown) VH: EVQLVESGGGLIQPGGSLRLSCAASGVIVSYNYMNWVRQAPGKGLEWVSVIYSGGSTFYADSVRGRFTISRDNSKNTLYLQMNSLRAEDTAVYYCARDLGPAGAFDIWGLGTMVTVSS VL: EIVLTQSPGTLSLSPGETATLSCRASQSFSSDLAWYQQKPGQAPRLLIYGASSRATGIPDRFSGSGSGTDFTLTISRLEPADFAVYYCQQYGSSPPVTFGGGTKVEIK | 0.0119 µg/mL | 0.0409 µg/mL | 0.0126 µg/mL | 0.0311 µg/mL | 0.00699 µg/mL | 0.0401 µg/mL | 0.00462 µg/mL | 0.00921 µg/mL | 0.00529 µg/mL | 0.0174 µg/mL
2 | MX1057 (trispecific antibody) chain 1: QTVVTQEPSFSVSPGGTVTLTCGLSSGSVSTAYFPSWYQQTPGQAPRTLIYGTNTRSSGVPDRFSGSILGNKAALTITGAQADDESDYYCVLYMGRGIVVFGGGTKLTVLGGSSGDTVMTQSPLSLPVTPGEPASISCRSSQSLLNSNGYNYLDWYVQKPGQSPQLLIYLGSNRASGVPDRFSGSGSGTDFTLKISRVEAEDVGVYYCMQPLQTPLFTFGPGTKVEIKGGGGSGGSGSGGGGSASGSGQVTLRESGPALVKPTQTLTLTCTFSGFSLSTRGVCVSWIRQPPGKALEWLAFIDWDDDKYYNTSLKTRLTISKDTSKNQVVLTMTNVHPVDTATYYCARISSHHGSSWCTTFDYWGQGALVTVSAGGSSGQVQLVESGGGVVQPGRSLRLSCAASGFTLSSYGMHWVRQAPGKGLEWVAVISYDGSNKYYVDSVKGRFTISRDNSKNTLYLQMNSLRAEDTAVYYCRWAYWELLPDYYYGMDVWGQGTTVTVSSASGGSGDKTHTCPPCPAPELLGGPSVFLFPPKPKDTLMISRTPEVTCVVVDVSHEDPEVKFNWYVDGVEVHNAKTKPREEQYNSYVVSVLTVLHQDWLNGKEYKCKVSNKALPAPIEKTISKAKGQPREPQVYTLPPCRDELTKNQVSLWCLVKGFYPSDIAVEWESNGQPENNYKTTPPVLDSDGSFFKKLTVDKSRWQQGNVFSCSVLHEALHSHYTQKSLSLSPG chain 2: EIVMTQSPAILSVSPGERATLSCRASQSVAINLAWYQQKPGQAPRLLIYAASSRATGIPGRFSGSGSETNFTLTISSLQSGDFAVYYCQQYITWPPSYTFGQGTKLEIKGGSSGDTVMTQSPLSLPVTPGEPASISCRSSQSLLNSNGYNYLDWYVQKPGQSPQLLIYLGSNRASGVPDRFSGSGSGTDFTLKISRVEAEDVGVYYCMQPLQTPLFTFGPGTKVEIKGGGGSGGSGSGGGGSASGSGQVTLRESGPALVKPTQTLTLTCTFSGFSLSTRGVCVSWIRQPPGKALEWLAFIDWDDDKYYNTSLKTRLTISKDTSKNQVVLTMTNVHPVDTATYYCARISSHHGSSWCTTFDYWGQGALVTVSAGGSSGEVQLVESGGALIQPGGSLRLSCAASGIIVSANYMSWVRQAPGKGLEWVSVIYSGGSTFYADSVKGRFTISRDNSKNTLYLEMNSLRAEDTAVYYCARDAPILGVSDWGQGTLVTVSSASGGSGDKTHTCPPCPAPELLGGPSVFLFPPKPKDTLMISRTPEVTCVVVDVSHEDPEVKFNWYVDGVEVHNAKTKPREEQYNSYVVSVLTVLHQDWLNGKEYKCKVSNKALPAPIEKTISKAKGQPREPQVCTLPPSRDELTKNQVSLSCAVKGFYPSDIAVEWESNGQPENNYKTTPPVLDSDGSFFLVSKLTVDKSRWQQGNVFSCSVLHEALHSHYTQKSLSLSPG | 0.0083 µg/mL | 0.0236 µg/mL | 0.00639 µg/mL | 0.0355 µg/mL | 0.00127 µg/mL | 0.00379 µg/mL | 0.00404 µg/mL | 0.00742 µg/mL | 0.0123 µg/mL | 0.0561 µg/mL
3 | MX1058 (trispecific antibody) chain 1: QTVVTQEPSFSVSPGGTVTLTCGLSSGSVSTAYFPSWYQQTPGQAPRTLIYGTNTRSSGVPDRFSGSILGNKAALTITGAQADDESDYYCVLYMGRGIVVFGGGTKLTVLGGSSGDTVMTQSPLSLPVTPGEPASISCRSSQSLLNSNGYNYLDWYVQKPGQSPQLLIYLGSNRASGVPDRFSGSGSGTDFTLKISRVEAEDVGVYYCMQPLQTPLFTFGPGTKVEIKGGGGSGGSGSGGGGSASGSGQVTLRESGPALVKPTQTLTLTCTFSGFSLSTRGVCVSWIRQPPGKALEWLAFIDWDDDKYYNTSLKTRLTISKDTSKNQVVLTMTNVHPVDTATYYCARISSHHGSSWCTTFDYWGQGALVTVSAGGSSGQVQLVESGGGVVQPGRSLRLSCAASGFTLSSYGMHWVRQAPGKGLEWVAVISYDGSNKYYVDSVKGRFTISRDNSKNTLYLQMNSLRAEDTAVYYCRWAYWELLPDYYYGMDVWGQGTTVTVSSASGGSGDKTHTCPPCPAPELLGGPSVFLFPPKPKDTLMISRTPEVTCVVVDVSHEDPEVKFNWYVDGVEVHNAKTKPREEQYNSYVVSVLTVLHQDWLNGKEYKCKVSNKALPAPIEKTISKAKGQPREPQVYTLPPCRDELTKNQVSLWCLVKGFYPSDIAVEWESNGQPENNYKTTPPVLDSDGSFFKKLTVDKSRWQQGNVFSCSVLHEALHSHYTQKSLSLSPG chain 2: DTVMTQSPLSLPVTPGEPASISCRSSQSLLNSNGYNYLDWYVQKPGQSPQLLIYLGSNRASGVPDRFSGSGSGTDFTLKISRVEAEDVGVYYCMQPLQTPLFTFGPGTKVEIKGGSSGEIVMTQSPAILSVSPGERATLSCRASQSVAINLAWYQQKPGQAPRLLIYAASSRATGIPGRFSGSGSETNFTLTISSLQSGDFAVYYCQQYITWPPSYTFGQGTKLEIKGGGGSGGSGSGGGGSASGSGEVQLVESGGALIQPGGSLRLSCAASGIIVSANYMSWVRQAPGKGLEWVSVIYSGGSTFYADSVKGRFTISRDNSKNTLYLEMNSLRAEDTAVYYCARDAPILGVSDWGQGTLVTVSSGGSSGQVTLRESGPALVKPTQTLTLTCTFSGFSLSTRGVCVSWIRQPPGKALEWLAFIDWDDDKYYNTSLKTRLTISKDTSKNQVVLTMTNVHPVDTATYYCARISSHHGSSWCTTFDYWGQGALVTVSAASGGSGDKTHTCPPCPAPELLGGPSVFLFPPKPKDTLMISRTPEVTCVVVDVSHEDPEVKFNWYVDGVEVHNAKTKPREEQYNSYVVSVLTVLHQDWLNGKEYKCKVSNKALPAPIEKTISKAKGQPREPQVCTLPPSRDELTKNQVSLSCAVKGFYPSDIAVEWESNGQPENNYKTTPPVLDSDGSFFLVSKLTVDKSRWQQGNVFSCSVLHEALHSHYTQKSLSLSPG | 0.016 µg/mL | 0.032 µg/mL | 0.0142 µg/mL | 0.0318 µg/mL | 0.00403 µg/mL | 0.01 µg/mL | 0.00274 µg/mL | 0.00551 µg/mL | 0.00449 µg/mL | 0.0285 µg/mL
4 | E76-B8 (antibody, V domains shown) VH: EVQLVESGGALIQPGGSLRLSCAASGIIVSANYMSWVRQAPGKGLEWVSVIYSGGSTFYADSVKGRFTISRDNSKNTLYLEMNSLRAEDTAVYYCARDAPILGVSDWGQGTLVTVSS VL: EIVMTQSPAILSVSPGERATLSCRASQSVAINLAWYQQKPGQAPRLLIYAASSRATGIPGRFSGSGSETNFTLTISSLQSGDFAVYYCQQYITWPPSYTFGQGTKLEIK | 0.015 µg/mL | 0.0496 µg/mL | 0.0134 µg/mL | 0.0472 µg/mL | 0.0122 µg/mL | 0.0274 µg/mL | 0.00697 µg/mL | 0.0148 µg/mL | 0.00457 µg/mL | 0.0217 µg/mL

Reference: patent publication US20240109955A1
